Test results reported in IntAct's records for PubMed 28335037.

B1: E3 ubiquitin-protein ligase LRSAM1 (Homo sapiens), Q6UWE0 (parent)
chain: MPLFFRKRKPSEEARKRLEYQMCLAKEAGADDILDISKCELSEIPFGAFATCKVLQKKVLIVHTNHLTSLLPKSCSLLSLATIKVLDLHDNQLTALPDDLGQLTALQVLNVERNQLMQLPRSIGNLTQLQTLNVKDNKLKELPDTVGELRSLRTLNISGNEIQRLPQMLAHVRTLEMLSLDASAMVYPPREVCGAGTAAILQFLCKESGLEYYPPSQYLLPILEQDGIENSRDSPDGPTDRFSREELEWQNRFSDYEKRKEQKMLEKLEFERRLELGQREHTQLLQQSSSQKDEILQTVKEEQSRLEQGLSEHQRHLNAERQRLQEQLKQTEQNISSRIQKLLQDNQRQKKSSEILKSLENERIRMEQLMSITQEETESLRRRDVASAMQQMLTESCKNRLIQMAYESQRQNLVQQACSSMAEMDERFQQILSWQQMDQNKAISQILQESAMQKAAFEALQVKKDLMHRQIRSQIKLIETELLQLTQLELKRKSLDTESLQEMISEQRWALSSLLQQLLKEKQQREEELREILTELEAKSETRQENYWLIQYQRLLNQKPLSLKLQEEGMERQLVALLEELSAEHYLPIFAHHRLSLDLLSQMSPGDLAKVGVSEAGLQHEILRRVQELLDAARIQPELKPPMGEVVTPTAPQEPPESVRPSAPPAELEVQASECVVCLEREAQMIFLNCGHVCCCQQCCQPLRTCPLCRQDIAQRLRIYHSS

Variants of: B1
Conditions: with ube2b_rabit UBE2B

| Variant | effect of a mutation on the interaction |
| --- | --- |
| C694Y | disrupting interaction strength |
| P707L | disrupting interaction strength |
| Q573K | with no effect |
